According to patent US20220204624A1:

Columns and labels:
Test in all cases: Octet (BLI), global fit, 1:1 binding model
human CTLA-4 (human) = human CTLA-4 (human) (UniProt P16410)
[1] = molecular target: cynomolgus LAG-3 (cynomolgus)
[2] = molecular target: cynomolgus CTLA-4 (cynomolgus) (UniProt G7PL88)
human LAG-3 (human) = human LAG-3 (human) (UniProt P18627)
human LAG-3 (human), sequence (P18627 23-450 limits assumed): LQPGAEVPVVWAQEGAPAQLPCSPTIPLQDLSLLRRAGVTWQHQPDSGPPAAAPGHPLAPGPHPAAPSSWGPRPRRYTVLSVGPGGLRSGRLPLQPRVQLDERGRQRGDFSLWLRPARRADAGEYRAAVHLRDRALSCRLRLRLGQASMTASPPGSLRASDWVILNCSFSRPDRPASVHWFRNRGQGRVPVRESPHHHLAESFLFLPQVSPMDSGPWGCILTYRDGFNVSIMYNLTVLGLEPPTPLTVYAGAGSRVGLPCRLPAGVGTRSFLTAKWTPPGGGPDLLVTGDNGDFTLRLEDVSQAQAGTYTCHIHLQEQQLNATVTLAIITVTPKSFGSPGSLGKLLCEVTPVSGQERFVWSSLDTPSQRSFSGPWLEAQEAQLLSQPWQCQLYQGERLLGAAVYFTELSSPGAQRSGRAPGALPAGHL

human CTLA-4 (human), sequence (P16410 36-161 limits assumed): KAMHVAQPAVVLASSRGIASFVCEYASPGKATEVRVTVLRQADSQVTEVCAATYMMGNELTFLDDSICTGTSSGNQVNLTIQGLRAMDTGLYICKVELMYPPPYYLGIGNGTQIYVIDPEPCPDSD
cynomolgus CTLA-4 (cynomolgus), sequence (G7PL88 entry or part of it limits assumed, form in doubt): as the sequence (P16410 36-161 limits assumed) above, with S14N, L106M counted along it

XmAb22841 (bispecific antibody)
Kd (human CTLA-4 (human)): 4.6 nM
Kd [1]: 1.3 nM
Kd [2]: 17.6 nM
Kd (human LAG-3 (human)): 1.4 nM
